Experimental data published in patent publication US20140287419A1, “Compositions Having Dicamba Decarboxylase Activity and Methods of Use” (priority 2013, published 2014).
“Also recorded” adds a separate entry of the source.

B1: 32 (protein)
chain: MARIIAIEEHFLDLDIARASRPEAERLSPAFAAAYGAGQGYNYSPAPEVLLDLEEGRVADMDAHGISMQVLSSLSTQQLPADVAVELVRKVNDRAAAAVAARPDRFAAFAALPTTVPEAAADELDRAVGELGFVGSMINGRTGDAFLDAPRFDAVLRRSAELRVPVYLHPGVPPVETSRSNYEGGLDPIVTARLQTSAWGWHVETGIHFLHLVLAGVFDRYPDLQVILGHWGEMVPFFLERIEEALPQQITHLDRPVGAYFRENAHITPSGMFSQAQLQFCVETVGIERIMFSVDYPFLGNDGAEAFLRQANLPPLATEKIAHLNAERLLALPS
modifications: Streptomyces violaceusniger
B2: 2 (protein, listed as Serratia sp.)
chain: MAKIICLEEHTLDKALVMASMPAALEQAPFLSDWGKTVTDGNLPDRSRPQIEKNDLINIKGADIGRGRLDDMDVAGITMQVLSVGGFPHLISAAEGVDLNRAANDRLADAVNAHPDRFAAFATLPWAQPDSAEKELERAVKELGFKGALLNGRPSTHFLDHPDYDGLLARFNALGVPLYLHPGLPVRSVQQAYYGGFSDEVTARLSMFGWGWHHEAGIHLLRLILSGAFDKYPNLQVISGHWGEMLPFWLQRLDDSLPQAATGLRRTIAQTFKEQVYVTPSGMLTLPHFQFIYALLGAERIIFSVDYPYQTLDGVKAFIQSLPVPEEAKEAIAFRNAERLLGLTS
B3: 31 (protein, listed as Agrobacterium sp.)
chain: MAQGKVALEEHFAIPETLQDSAGFVPGDYWKELQHRLLDIQDTRLKLMDAHGIETMILSLNAPAVQAIPDKTKAIEIARRANDVLAEECAKRPDRFLAFAALPLQDPDAATEELQRCVNDLGFVGALVNGFSQEGDGQTPLYYDLPQYRPFWGEVEKLDVPFYLHPRNPLPQDSRIYDGHPWLLGPTWAFAQETAVHALRLMASGLFDEHPRLNIILGHMGEGLPYMMWRIDHRNAWVKLPPRYPAKRRFMDYFNENFHITTSGNFRTQTLIDAILEIGADRILFSTDWPFENIDHASDWFNATSIAEADRVKIGRTNARRLFKLDGA
B4: 30 (protein)
chain: MARGKIALEEHVSTPENNRLWDSTGEANRNGSEYMQDVERRLLDRSIQLEEMAQRNIDHVILSLTSPGAQSILDKAKAVSFARDTNDFIVDNYVKPNPDKFSAFATLALQNPEAAAEELERAVKKLGMKGALINGYTNVKDSEHGLYLDDESMLVFWDKVNELNVPVYLHPREPLEGPARGIYTGYESLIGSAWGFAQETAVHAIRLMMSGLFDRYPNLNLVLGHLGEGLVHMLPRTQHRLYRQRFGCGLGKAEKPLMHYLQNNFIVTTSGHFNTHSLNNAIEVMGADRVMFSVDYPYEDIHQACDWFDPLEMDEGLKEKIAWGNASRVFNIK
modifications: Enterobacter aerogenes
B5: 28 (protein, listed as Sphingomonas paucimobilis)
chain: MARLIATEEAVTFQPVVDALRAHSRTDDASLDMILVRDVYGDEPARPAMIGRLSDVTGERLAEMDSNGVDMHLLSLTAPGVQMFDAETGTRLARIANDLMAQTVAANPTRFAGLGTFAPQDPASAAREIERVATQLRLNGLVINSHTNDLYYDDPFFHPVFEAIEASGLALYIHPRAPSKQIDRAFRDYGMNSAIWGYGIETSTNAVRMILSGLFDRFPRLKIVLGHMGEAIPFWLWRLDYMHGNATTFGGAPKLKLKPSEYFRRNFAITTSGVESHAALRYSIEVLGPENVMWAIDYPYQPMAPAVQFIRTAPIPEDVKAMVAGGNAARIFRIT
B6: 95 (protein, listed as Pseudomonas fluorescens)
chain: MAKKPRIDMHSHFFPRISEQEAAKFDANHAPWLQVSAKGDTGSIMMGKNNFRPVYQALWDPAFRIEEMDAQGVDVQVTCATPVMFGYTWEANKAAQWAERMNDFALEFAAHNPQRIKVLAQVPLQDLDLACKEASRAVAAGHLGIQIGNHLGDKDLDDATLEAFLTHCANEDIPILVHPWDMMGGQRMKKWMLPWLVAMPAETQLAILSLILSGAFERIPKSLKICFGHGGGSFAFLLGRVDNAWRHRDIVREDCPRPPSEYVDRFFVDSAVFNPGALELLVSVMGEDRVMLGSDYPFPLGEQKIGGLVLSSNLGESAKDKIISGNASKFFNINV
B7: 41 (protein, listed as Polaromonas sp.)
chain: MANGKIALEEHFATEETLMDSAGFVPDKDWPELRSRLLDIQDRRVRLMDEHGIETMILSLNAPAVQAIADSTRANETARRANDFLAEQVAKQPTRFRGFAALPMQDPELAARELERCVKELGFVGALVNGFSQDNRSAVPLYYDMAQYWPFWETVQALDVPFYLHPRNPLPSDARIYDGHAWLLGPTWAFGQETAVHALRLMGSGLFDKYPALKIILGHMGEGLPYSMWRIDHRNAWIKTTPKYPAKRKIVDYFNENFYLTTSGNFRTQTLIDAILEIGADRILFSTDWPFENIDHAADWFENTSISEADRKKIGWGNAQNLFKLNR
B8: 26 (protein, listed as Variovorax paradoxus)
chain: MATHMAPMKNKIALEEHFAIDLTIADSQVYARPEVWQGLKSNLLDFEQQRLEKMDEWGTEFSILSLNSPAVQGIPDAKRAIEVAQRANDVLAEQVKRHPTRFGGFAALPMQDPEASARELERCVNQLGFHGFLVNGFSQVGDENIVVYYDDARFNDFWTAAAALKKPFYMHPRDPLLAREPIYDGAHWLTGPTWAFAMETAIHALRLMSSGMFDRHPALQMILGHFGEGIPFNIWRVDHILRKGRRGMPCDKEIGEYLRSNVHITTSGNFRTPTLLSTMLEVGSDRIMYSVDYPFEKHEDAARWFDTCEISENDRQKIGRDNARKLFGLK
B9: 27 (protein, listed as Aspergillus oryzae)
chain: MALGKIALEEAFALPRFEEKTRWWASLFSTDAETHVKEITDINKIRIEHADKHGVGYQILSYTAPGVQDIWDPVEAQALAVEINDYIAEQVRVNPDRFGAFATLSMHNPKEAADELRRCVEKYGFKGALVNDTQRAGPDGDDMIFYDNADWDIFWQTCTELDVPFYMHPRNPTGTIYEKLWADRKWLVGPPLSFAHGVSLHVLGMVTNGVFDRHPKLQIIMGHLGEHVPFDMWRINHWFEDRKKLLGLAETCKKTIRDYFAENIWITTSGHFSTTTLNFCMAEVGSDRILFSIDYPFETFSDACEWFDNAELNGTDRLKIGRENAKKLFKLDSYKDSSA
B10: 29 (protein, listed as Pseudovibrio sp.)
chain: MAGRRDFLRKSVAAGVGLTAAAQLSAGGAQATVPDTSNIPLITLEEHFTTPELQSKNTSGDKRLFSGGGSRPELLDVGAGRIADMDEAGIDIQVLSTVTPGASKITGAEGVEFTRKFNTWIAEEVIAAYPNRFRAFATLPLSSPEAAADELERSVREYGFVGTMTYGPIDGKFLDHADYAPLLARAEALGVPIYIHPNWPSPTAMQAYYDGLGDDLTSRILSGPGYGWHQEIAVQCLRLIVGGVFDRFPNLQIVVGHMGEGLPFYYWRVGEDLDRIAQKRLQKPVQQYFHDNLWITTSAFFRDELLNLALATMGEDRVMFSVDYPMASAKVGADWLRAADIPLATKEKIGSKNAMKLLGIDKI
B11: SEQ ID NO:100: 4-Oxalomesaconate hydratase, Reinekea blandensis MED297 (protein, listed as Reinekea blandensis)
chain: MAIIDCHGHYTTTPKGVEDYRNAQKAAVAKDPSFKGEKGQVVVSDDEIRESIENNQLKMQRERGTDLTIFSPRASWMGHHIGNEYTSQFWTEHQNDLIRRVCDLFPKNFAPVAQLPQSPGVDPAKSVPEIVRTVEQMGFIGINLNPDPSGGYWKDTSLADRAFYPIYEKMVEYDIPAMIHVSAACNDCFHTTGSHYLGADTTGFQQLIMSDVFKDFPSLKIIIPHGGGAVPYHWGRFRGLMQDQGYAPLEESALKNIYFDTCVYHQRGIDLLLDIVPTQNILFASEMIGAVRGIDPETGHNFDDTKRYIDNNTALNAEEKAMIFEGNARRVFSRLKTD
B12: SEQ ID NO: 116 (protein)
chain: MAQGKVALEEHFAIPETLQDAAGFVPGDYWKELQHRLLDIQDRRVRLMDEHGIETMILSLNAPAVQAIADSTRANETARRANDFLAEQVAKQPTRFRGFAALPMQDPELAARELERCVKELGFVGALVNGFSQDNRSAVPLYYDMAQYWPFWETVQALDVPFYLHPRNPLPSDARIYDGHAWLLGPTWAFGQETAVHALRLMGSGLFDKYPALKIILGHMGEGLPYSMWRIDHRNAWIKTTPKYPAKRKIVDYFNENFYLTTSGNFRTQTLIDAILEIGADRILFSTDWPFENIDHAADWFENTSISEADRKKIGWGNAQNLFKLNR
modifications: Dicamba decarboxylase variant clone DC.30.007
B13: SEQ ID NO:95: Alpha-Amino-Beta-Carboxymuconate-Epsilon-Semialdehyde-Decarboxylase, Pseudomonas fluorescens (protein, listed as Pseudomonas fluorescens)
chain: B6 chain

Assay: 14C assay with IPTG-induced recombinant E. coli cells (14CO2 capture from [14C]-carboxyl-labeled dicamba)
Conditions: IPTG-induced recombinant E. coli cells; [14C]-carboxyl-labeled dicamba; 14CO2 capture

| Molecule | Dicamba Decarboxylase Activity |
| --- | --- |
| B1 | High |
| B2 | High |
| B3 | High |
| B4 | High |
| B5 | High |
| B6 | No |
| B7 | High |
| B8 | High |
| B9 | No |
| B10 | No |

Same assay, conditions: dicamba decarboxylation activity of the protein of the given SEQ ID NO

| Molecule | Enzymatic Detection level |
| --- | --- |
| B1 | High |
| B2 | High |
| B3 | High |
| B4 | High |
| B5 | High |
| B6 | No |
| B7 | High |
| B8 | High |
| B9 | No |
| B10 | No |

Assay: Dicamba decarboxylation activity of computationally designed protein variants
Conditions: Table 4, variants designed to introduce activity

| Molecule | Dicamba Decarboxylation activity |
| --- | --- |
| B6 | No |

Same assay, conditions: Table 5, designed variants with improved activity

| Molecule | Dicamba Decarboxylation activity |
| --- | --- |
| B7 | Yes |

Same assay, conditions: native protein or designed variant versus parent

| Molecule | Dicamba Decarboxylase Activity |
| --- | --- |
| B11 | Neither of the native proteins have dicamba decarboxylase activity |
| B12 | improved dicamba decarboxylase activity |
| B13 | not active for dicamba decarboxylation; also recorded: Neither of the native proteins have dicamba decarboxylase activity |

Same assay, conditions: parent SEQ ID NO:1 or SEQ ID NO:41 listed as 100

| Molecule | Percent Activity Improvement Over Parent (%) |
| --- | --- |
| B7 | 100% |
